Measured values from patent US20180325836A1, “ULTRASONIC TRANSDUCERS SUITABLE FOR ULTRASONIC DRUG DELIVERY VIA A SYSTEM, WHICH IS PORTABLE AND WEARABLE BY THE PATIENT” (BKR IP Holdco LLC, priority 2015, published 2018).

Key:
[1] = Drug survivability after ultrasonic exposure (HPLC analysis of insulin); assay type: physicochemical
Description: Since the transducers of this invention are designed primarily for application in a drug delivery system the Applicant deemed it necessary to test the effect of the ultrasonic signal upon an active pharmaceutical substance. High intensity and high frequency ultrasound is theorized to be capable of inducing a cavitation effect within a drug, leading to an increase in temperature and a degradation of the drug molecule. For the following experiment Insulin (Humulin Regular-supplied by the Eli Lilly Company) was subjected to ultrasound emitted from a stacked array of the transducers of this invention, set to operate at 20 k Hz frequency and at 125 mW/sq. cm intensity level, for one, eight and eleven continuous hours of exposure. The insulin was placed in a plastic pouch within a hydrophone tank containing water and stirred during ultrasonic exposure. A control sample, which was untreated, but allowed to sit in the pouch and tank for one, eight and eleven hours, was also made. Samples were sent to Celsis Laboratories for independent analysis.

rats = assay: Ultrasonically enhanced transdermal insulin delivery in live rats, blood glucose levels; assay type: in vivo, rat
Description: A four-element transducer was fabricated using four standard cymbal element transducers in one array system (Array #1) and four stacked cymbal element transducers in another system (Array #2). Array #1, the standard array, was set to operate at 20 k Hz frequency and at 125 mW/sq. cm intensity level. Array #2, the stacked array, was set to operate at 20 k Hz frequency and at 225 mW/sq. cm intensity level.
The transducer's arrays were fitted with a reservoir at the bottom end, into which Humulin Regular Insulin (supplied by Eli Lilly Company) was inserted. A total of […] of insulin was added, providing 100 units of insulin for the each test.
Two groups of test rates were assembled. The first group (Group-1) would receive the ultrasonic transmission while the second group would receive no ultrasound. In the second group (Group-2) the transducers arrays were loaded with insulin and the insulin was allowed to pool onto the surface of the rat skin, but there was no active ultrasonic transmission.
Next a frequency generator was employed to propagate the pulsed ultrasonic transmission, which used 100 millisecond pulses, with a pulse rate of one pulse per second, a duty cycle of 10%, for one hour.
Both Group-1 and Group-2 animals were tested for 120 minutes. Blood samples were taken from the animals according to standard investigative procedure every 30 minutes for the first hour and every hour after and analyzed for glucose levels and the presence of insulin. The Group-1 animals were exposed to ultrasound for 60 minutes, after which the ultrasound was terminated for the balance of the test period. Glucose levels in both groups were observed over the 120 minute period.

rat skin = conditions: rats, after ultrasonic transdermal insulin delivery with transducer array
Description: The belly of the rats were shaved to produce a skin area as close in configuration as would be present in the human situation. The transducer arrays were placed directly onto the rat skin surface and adhered to the skin by means of an adhesive.
A section of the skin where the transducer was placed is marked on the skin.

Substance: Insulin [Humulin Regular]
- degradation of insulin or excipient solution (HPLC scan) ([1]; control sample, no ultrasound, left in pouch and tank): no degradation
- degradation of insulin or excipient solution (HPLC scan) ([1]; ultrasonically treated sample, eight hours of continuous exposure, 20 k Hz, 125 mW/sq. cm): no degradation
- change in the insulin versus untreated insulin (independent analysis) ([1]; ultrasound from stacked array, 20 k Hz, 125 mW/sq. cm, one, eight and eleven continuous hours): no change
- glucose level (rats; Group-1 rats, insulin on skin with active ultrasound (20 k Hz), minute 30 and minute 60): significant reduction
- glucose level after termination of the ultrasound (rats; Group-1 rats, minute 60 to 120, ultrasound terminated at minute 60): rise
- glucose level (rats; Group-2 rats, insulin on skin, no ultrasound, minute 30 and minute 60): no lowering
- glucose level (rats; Group-2 rats, no ultrasound, minute 60 to 120): no decrease
- permeation through the skin (rats; insulin placed on the skin or delivered via transdermal patch, without ultrasound): will not permeate
- skin damage at test area (rat skin): no skin damage
